Data as given in patent publication US20260043004A1 (IMMPACT BIO, published 2026).

Biological target: T1, anti-CD19/CD20 CAR having the amino acid sequence of SEQ ID NO: 2 (construct CC314)
T1 construct: Chimeric antigen receptor on the surface of transduced T cells: Leu16 scFv (VL-VH), (G4S)4, FMC63 scFv (VH-VL), IgG4 spacer, CD28 TM, 4-1BB, CD3 zeta; also called CD19/20 CAR; CD 19/20 CAR
Test: flow cytometry staining of T cells (donor 1917) transduced with CD19/20 CAR lentiviral vector

T1 sequence (chain, as listed by the source): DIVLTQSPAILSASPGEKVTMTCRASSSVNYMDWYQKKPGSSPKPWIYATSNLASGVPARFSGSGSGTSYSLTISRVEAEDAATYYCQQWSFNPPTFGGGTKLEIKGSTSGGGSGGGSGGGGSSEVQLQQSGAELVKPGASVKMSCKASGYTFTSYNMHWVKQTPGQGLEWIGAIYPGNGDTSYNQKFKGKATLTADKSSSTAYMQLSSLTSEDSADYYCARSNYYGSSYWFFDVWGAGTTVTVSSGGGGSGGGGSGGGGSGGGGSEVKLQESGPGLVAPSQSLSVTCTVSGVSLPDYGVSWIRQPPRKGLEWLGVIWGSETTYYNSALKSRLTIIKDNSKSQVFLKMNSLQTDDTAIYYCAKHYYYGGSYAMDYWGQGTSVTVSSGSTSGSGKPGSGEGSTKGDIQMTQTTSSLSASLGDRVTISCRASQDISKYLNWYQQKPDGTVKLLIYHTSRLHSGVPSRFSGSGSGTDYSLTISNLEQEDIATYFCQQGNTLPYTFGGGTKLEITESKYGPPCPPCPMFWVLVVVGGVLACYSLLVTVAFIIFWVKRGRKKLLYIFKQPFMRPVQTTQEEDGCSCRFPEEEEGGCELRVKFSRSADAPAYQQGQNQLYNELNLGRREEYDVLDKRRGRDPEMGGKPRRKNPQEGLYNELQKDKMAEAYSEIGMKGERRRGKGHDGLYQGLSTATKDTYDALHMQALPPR

B1: CD20 Protein-Biotin (Acros) (other, UniProt P11836 1-297, looked up)
chain: MTTPRNSVNGTFPAEPMKGPIAMQSGPKPLFRRMSSLVGPTQSFFMRESKTLGAVQIMNGLFHIALGGLLMIPAGIYAPICVTVWYPLWGGIMYIISGSLLAATEKNSRKCLVKGKMIMNSLSLFAAISGMILSIMDILNIKISHFLKMESLNFIRAHTPYINIYNCEPANPSEKNSPSTQYCYSIQSLFLGILSVMLIFAFFQELVIAGIVENEWKRTCSRPKSNIVLLSAEEKKEQTIEIKEEVVGLTETSSQPKNEEDIEIIPIQEEEEEETETNFPEPPQDQESSPIENDSSP
modifications: biotin (site not stated)
notes: Bought detection reagent
  % Positive Cells: 68.1%
